This passage reports IC50 results from patent US20100215619A1.

One assay addresses HLA-DRB4*0101 (human). Description: competition binding. Particulars: modification not given.
A further assay concerns the target HLA-DRB1*0101 (human). Description: competition binding. Particulars: modification not given.

For orientation: IC50 means the concentration that inhibits the measured activity by half. A high value points to weaker potency in that assay. For VGYVDDTQFVRFDSD [p6], the IC50 with HLA-DRB4*0101 (human) was determined as 90 µM. Molecule GTLRGYYNQSEAGSH [p15] showed an IC50 with HLA-DRB1*0101 (human) of 456 nM.
